Molecular target: trimeric SARS-CoV-2 ectodomain (S 6P trimer, residues 16-1206) (SARS-CoV-2) (UniProt P0DTC2)
Assay: cryo-EM structure

trimeric SARS-CoV-2 ectodomain (S 6P trimer, residues 16-1206) (from UniProt P0DTC2 16-1206)
stoichiometry N: 3
